Values of other authors as cited in paper PMC3877210.
pKd: −log10 of the molar value.

Assays:
[1] = molecular target: integrin β1 cytoplasmic tail (Homo sapiens) (UniProt P05556); test: pulldown
[2] = molecular target: integrin β3 cytoplasmic tail (Homo sapiens) (UniProt P05106); test: SPR
[3] = molecular target: integrin β2 cytoplasmic tail (Homo sapiens) (UniProt P05107); test: SPR
[4] = molecular target: integrin β3 cytoplasmic tail (Homo sapiens) (UniProt P05106); test: NMR

UniProt P05106, sequence (P05106 742-788): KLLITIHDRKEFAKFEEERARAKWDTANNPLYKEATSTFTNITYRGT
UniProt P05556, sequence (P05556 752-798): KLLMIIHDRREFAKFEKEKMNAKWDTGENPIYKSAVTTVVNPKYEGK
UniProt P05107, sequence (P05107 724-769): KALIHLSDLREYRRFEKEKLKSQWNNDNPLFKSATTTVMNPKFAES

talin F2-F3 F2-F3 (from UniProt Q9Y490)
pKd [1]: 7.17 | pKd [2]: 7.04 | pKd [3]: 7.90

talin F3 F3 (from UniProt Q9Y490)
pKd [4]: 3.56
